The text below walks through data of patent publication US20230272056A1 (Merck Sharp & Dohme, published 2023).

First the molecules themselves.
B1: VH H35R (62BIT) (Fab, V domains shown)
VH: EVQLVQSGAEVKKPGASVKVSCKASGYTFTSYWMRWVRQAPGQGLEWMGRIDPQSGGIKYAQKFQGRATLTVDTSTSTAYMELSRLRSDDTAVYYCARWDYGGYFDVWGQGTLVTVSS
VL: DIQMTQSPSSLSASVGDRVTITCRASQDITNYLNWYQQKPGKAVKLLIYYTSRLHSGVPSRFSGSGSGTDYTLTISSLQPEDFATYFCQQGDTLPWTFGQGTKLEIKR
notes: Light chain: parental 20E6 LC, implied
B2: VH G102S (29BIT) (Fab, V domains shown)
VH: B1 VH with R35H, G102S
VL: B1 VL
notes: as for B1
B3: VL T30E (36BIT) (Fab, V domains shown)
VH: B1 VH with R35H
VL: B1 VL with T30E
notes: Heavy chain: parental 20E6 Fab HC, implied
B4: VL R53D (35BIT) (Fab, V domains shown)
VH: B1 VH with R35H
VL: B1 VL with R53D
notes: as for B3
B5: VH H35K (30BIT) (Fab, V domains shown)
VH: B1 VH with R35K
VL: B1 VL
notes: as for B1
B6: VH S31R (25BIT) (Fab, V domains shown)
VH: B1 VH with S31R, R35H
VL: B1 VL
notes: as for B1
B7: VH S55E (26BIT) (Fab, V domains shown)
VH: B1 VH with R35H, S55E
VL: B1 VL
notes: as for B1
B8: VL L94Q (33BIT) (Fab, V domains shown)
VH: B1 VH with R35H
VL: B1 VL with L94Q
notes: as for B3
B9: VL T30D (37BIT) (Fab, V domains shown)
VH: B1 VH with R35H
VL: B1 VL with T30D
notes: as for B3
B10: VH K59W (61BIT) (Fab, V domains shown)
VH: B1 VH with R35H, K59W
VL: B1 VL
notes: as for B1
B11: VH G57D (27BIT) (Fab, V domains shown)
VH: B1 VH with R35H, G57D
VL: B1 VL
notes: as for B1
B12: VL L94D (32BIT) (Fab, V domains shown)
VH: B1 VH with R35H
VL: B1 VL with L94D
notes: as for B3
B13: VL R53E (31BIT) (Fab, V domains shown)
VH: B1 VH with R35H
VL: B1 VL with R53E
notes: as for B3
B14: VH S31K (24BIT) (Fab, V domains shown)
VH: B1 VH with S31K, R35H
VL: B1 VL
notes: as for B1
B15: VH G57E (63BIT) (Fab, V domains shown)
VH: B1 VH with R35H, G57E
VL: B1 VL
notes: as for B1
B16: VH K59Q (28BIT) (Fab, V domains shown)
VH: B1 VH with R35H, K59Q
VL: B1 VL
notes: as for B1
B17: VL R53I (34BIT) (Fab, V domains shown)
VH: B1 VH with R35H
VL: B1 VL with R53I
notes: Heavy chain: parental 20E6 Fab HC, implied; also called VL R531 (34BIT)
B18: VL T51Y (48BIT) (Fab, V domains shown)
VH: B1 VH with R35H
VL: B1 VL with T51Y
B19: VL T93Y (58BIT) (Fab, V domains shown)
VH: B1 VH with R35H
VL: B1 VL with T93Y
B20: parental 20E6 humanized antibody (antibody, IgG1, V domains shown)
VH: B1 VH with R35H
VL: DIQMTQSPSSLSASVGDRVTITCRASQDITNYLNWYQQKPGKAVKLLIYYTSRLHSGVPSRFSGSGSGTDYTLTISSLQPEDFATYFCQQGDTLPWTFGQGTKLEIK
B21: 10BLM (antibody, human IgG1, kappa, L234A L235A, V domains shown)
VH: B1 VH with W33D, R35H, I58T
VL: B1 VL with T30Y, R53V, H55E, S56T
B22: 14BLM (antibody, human IgG1, kappa, L234A L235A, V domains shown)
VH: B1 VH with W33D, M34T, R35H
VL: B1 VL with T30Y, R53Y, H55E, S56T
B23: 20BLM (antibody, human IgG1, kappa, L234A L235A, V domains shown)
VH: B1 VH with W33D, R35H, I58E, W99Y
VL: B1 VL with T30Y, H55E, S56T
B24: 08BLM (antibody, human IgG1, kappa, L234A L235A, V domains shown)
VH: B1 VH with W33D, R35H, I58T, Y104Q
VL: B1 VL with T30Y, R53G, H55E, S56T
B25: 09BLM (antibody, human IgG1, kappa, L234A L235A, V domains shown)
VH: B1 VH with W33D, R35H, Q54I
VL: B1 VL with T30F, R53H, H55E, S56T
B26: 17BLM (antibody, human IgG1, kappa, L234A L235A, V domains shown)
VH: B1 VH with W33D, R35H
VL: B1 VL with T30Y, H55E, S56T, T93E
B27: 13BLM (antibody, human IgG1, kappa, L234A L235A, V domains shown)
VH: B1 VH with W33D, R35H, S55T, G57D, Y104Q
VL: B1 VL with T30Y, R53G, H55E, S56T

Positions count from the first letter of the chain named. Names may count otherwise.

human LAP-TGFβ1 expressed on P3U1 cells, sequence (P01137 30-390): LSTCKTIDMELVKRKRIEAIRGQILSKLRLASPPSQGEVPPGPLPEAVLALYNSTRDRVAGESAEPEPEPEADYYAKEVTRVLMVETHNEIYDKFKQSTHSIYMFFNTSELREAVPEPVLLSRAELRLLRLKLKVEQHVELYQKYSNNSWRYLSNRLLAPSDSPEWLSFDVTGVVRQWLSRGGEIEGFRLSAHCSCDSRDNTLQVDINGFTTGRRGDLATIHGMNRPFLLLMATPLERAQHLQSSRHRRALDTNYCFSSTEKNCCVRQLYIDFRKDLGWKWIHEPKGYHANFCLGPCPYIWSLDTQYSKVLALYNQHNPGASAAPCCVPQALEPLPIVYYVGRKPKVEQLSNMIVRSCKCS
T1 sequence (chain, as listed by the source limits assumed): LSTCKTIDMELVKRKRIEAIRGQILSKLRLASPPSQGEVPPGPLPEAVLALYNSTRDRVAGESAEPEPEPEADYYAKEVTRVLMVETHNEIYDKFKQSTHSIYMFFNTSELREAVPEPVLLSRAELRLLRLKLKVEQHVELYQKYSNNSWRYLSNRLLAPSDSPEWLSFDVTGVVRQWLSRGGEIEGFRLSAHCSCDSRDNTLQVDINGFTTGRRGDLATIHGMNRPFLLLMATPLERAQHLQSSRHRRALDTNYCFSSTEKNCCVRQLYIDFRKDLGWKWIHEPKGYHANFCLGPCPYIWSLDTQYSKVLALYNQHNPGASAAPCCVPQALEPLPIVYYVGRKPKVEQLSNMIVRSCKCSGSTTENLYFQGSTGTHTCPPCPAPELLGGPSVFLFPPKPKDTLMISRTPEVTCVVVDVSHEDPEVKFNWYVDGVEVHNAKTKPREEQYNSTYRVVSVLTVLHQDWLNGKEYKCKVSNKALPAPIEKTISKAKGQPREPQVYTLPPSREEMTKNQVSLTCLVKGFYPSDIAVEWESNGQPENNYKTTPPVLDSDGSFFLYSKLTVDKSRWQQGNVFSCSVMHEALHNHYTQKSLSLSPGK

One assay addresses T1, human LAP-TGFB1 Fc fusion (human).
T1 construct: also called human LAP-TGFβ1-Fc; human LAP-TGFβ-Fc isoform 1
Nature of the assay: BLI off-rate screen. As to the method:
(§1) The Fab mutants including a positive control, 20E6 Fab, and a negative control Fab (Molecular Innovations, catalog HU-FAB-4510) were diluted to 200 nM in assay buffer and loaded to FAB2G sensors for 180 seconds followed by a one-hour incubation at room temperature in assay buffer to equilibrate the tips. The Fab loaded sensors were assessed for binding with 100 nM human LAP-TGFβ for 180 seconds followed by a 180 second dissociation phase in assay buffer on a ForteBio HTX (software version 9.0.0.66). Non-specific binding to the negative control Fab was subtracted and the binding sensorgrams were aligned to the start of the association phase on the X and Y axis. The Fab binding was fit with the 1:1 binding model, dissociation phase only, with local fitting using ForteBio Data Analysis 9.0 software.
Regarding B1, the Binding response came out at 0.021 nm and the binding result is recorded as “no binding (tested: 100 nM antigen)”.
In turn, B2 came in with a Binding response of 0.087 nm, a Fold change of 0.5 fold and a koff of 0.0845 s⁻¹.
Consider B3, for which the Binding response was 0.439 nm, the Fold change is 1 fold and the koff was determined as 0.0405 s⁻¹.
The like results for B4 were, in that order, 0.398 nm, 1.2 fold and 0.0341 s⁻¹.
In the case of B5, the Binding response stood at 0.115 nm, the Fold change was determined as 0.8 fold and the off-rate (koff) stood at 0.0548 s⁻¹.
For the molecule B6, the Binding response turned out to be 0.069 nm, the Fold change worked out at 1 fold and the off-rate (koff) was found to be 0.0437 s⁻¹.
The like results for B7 were, in that order, 0.489 nm, 0.8 fold and 0.0519 s⁻¹.
For B8, in that order: 0.341 nm, 0.7 fold and 0.0583 s⁻¹.
B9: the Binding response stood at 0.182 nm, the Fold change was found to be 1.1 fold and the koff stood at 0.0402 s⁻¹.
As for B10, the Binding response was found to be 0.035 nm and the binding result is recorded as “no binding (tested: 100 nM antigen)”.
B11 registered a Binding response of 0.582 nm, a Fold change of 1.3 fold and a koff of 0.0337 s⁻¹.
B12 showed a Binding response of 0.195 nm, a Fold change of 0.7 fold and an off-rate constant (koff) of 0.0618 s⁻¹.
B13 showed a Binding response of 0.664 nm, a Fold change of 1.5 fold and a dissociation rate constant (koff) of 0.0286 s⁻¹.
For the molecule B14, the Binding response worked out at 0.625 nm, the Fold change was 1.1 fold and the koff was 0.037 s⁻¹.
Regarding B15, the Binding response was 0.69 nm, the Fold change is 1.1 fold and the koff was 0.0393 s⁻¹.
As for B16, the Binding response came out at 0.165 nm, the Fold change was 0.7 fold and the koff turned out to be 0.0596 s⁻¹.
For B17, the Binding response was determined as 0.757 nm, the Fold change is 1.7 fold and the koff turned out to be 0.0246 s⁻¹.

Another assay concerns the target T1, human LAP-TGFB1 Fc fusion. Nature of the assay: BLI off-rate screen. This is another data set of the same source. As to the method: as §1
Twenty-three variants containing a single tyrosine substitution in the light chain CDRs (at one of amino acid positions 24-31, 33, 34, 51-56, and 89-95 according to Kabat numbering scheme) and 21 similar heavy chain CDR variants (at amino acids positions 28-31, 33-35, 50-58 including 52a, 95, 96, 98, and 99 according to Kabat numbering scheme) were generated according to FIG. 1 and listed in Table 6 and their interactions with human LAP-TGFb1 were analyzed by ForteBio interferometry. […] In those sequences the VL is correct, even though these sequences are from the heavy chain. Thus, the VL_X ##Y refers to the position of the tyrosine mutation within the antibody, regardless of whether the sequence is a heavy or light chain.
B18 gave a Binding response of 0.204 nm, a Fold change of 0.8 fold and a koff of 0.0508 s⁻¹.
B19: the Binding response stood at 0.586 nm, the Fold change was 1.5 fold and the off-rate (koff) stood at 0.0273 s⁻¹.

The next assay addresses human LAP-TGFβ1 expressed on P3U1 cells (human, UniProt P01137 30-390). Kind of assay: cell-based or functional assay.
For B20, the “Average EC50” value was found to be 5.64 µg/mL, the “ELISA assay 2 EC50” value was found to be 8.9 µg/mL and the “ELISA assay #1 EC50” value was 2.38 µg/mL.
Turning to B21, the “Average EC50” value came to 0.083 µg/mL, the “ELISA assay 2 EC50” value was determined as 0.134 µg/mL and the “ELISA assay #1 EC50” value was found to be 0.0332 µg/mL.
The like results for B22 were, in that order, 0.158 µg/mL, 0.146 µg/mL and 0.169 µg/mL.
In the case of B23, the “Average EC50” value came to 0.033 µg/mL, the “ELISA assay 2 EC50” value came out at 0.008 µg/mL and the “ELISA assay #1 EC50” value was found to be 0.0574 µg/mL.
Turning to B24, the “Average EC50” value was determined as 0.076 µg/mL, the “ELISA assay 2 EC50” value is 0.098 µg/mL and the “ELISA assay #1 EC50” value was 0.0539 µg/mL.
As for B25, the “Average EC50” value turned out to be 0.08 µg/mL, the “ELISA assay 2 EC50” value amounted to 0.13 µg/mL and the “ELISA assay #1 EC50” value came to 0.0295 µg/mL.
For B26, in that order: 0.063 µg/mL, 0.089 µg/mL and 0.0357 µg/mL.
In the case of B27, the “Average EC50” value is 0.092 µg/mL, the “ELISA assay 2 EC50” value worked out at 0.105 µg/mL and the “ELISA assay #1 EC50” value amounted to 0.0785 µg/mL.

The term koff denotes the rate constant with which the complex falls apart. A high value points to a short-lived complex.
